According to the Immune Epitope Database (IEDB):

Legend:
HLA-A*01:01 [1] = experiment: IEDB peptide-MHC binding, purified MHC/competitive/fluorescence; ≥ and ≤ were set here for values at or beyond the usual limits of such assays; settings: source organism: Mus musculus
HLA-A*25:01 = experiment: as above; settings: source organism: Mus musculus
HLA-A*02:06 [2] = experiment: IEDB peptide-MHC binding, purified MHC/competitive/fluorescence; filed as Kd, often an IC50 or EC50 that approximates it; ≥ and ≤ were set here for values at or beyond the usual limits of such assays
HLA-B*15:01 [3] = experiment: as above
HLA-B*39:01 = experiment: as above; settings: source organism: Human immunodeficiency virus 1
HLA-A*02:01 [4] = experiment: as above
HLA-A*02:03 [5] = experiment: as above
HLA-A*26:01 = experiment: as above
HLA-A*26:03 = experiment: as above
HLA-A*30:01 [6] = experiment: as above; settings: source organism: Human immunodeficiency virus 1
HLA-A*30:01 [7] = experiment: IEDB peptide-MHC binding, purified MHC/competitive/radioactivity; filed as Kd, often an IC50 or EC50 that approximates it; ≥ and ≤ were set here for values at or beyond the usual limits of such assays; settings: source organism: Vaccinia virus WR
HLA-A*01:01 [8] = experiment: IEDB peptide-MHC binding, purified MHC/competitive/fluorescence; filed as Kd, often an IC50 or EC50 that approximates it; ≥ and ≤ were set here for values at or beyond the usual limits of such assays; settings: source organism: Vaccinia virus WR
HLA-B*27:05 [9] = experiment: as above; settings: source organism: Vaccinia virus WR
HLA-A*26:02 = experiment: as above; settings: source organism: Vaccinia virus WR
HLA-B*57:01 = experiment: as above; settings: source organism: Vaccinia virus WR
HLA-B*35:01 = experiment: as above; settings: source organism: Vaccinia virus WR
HLA-B*48:01 = experiment: IEDB peptide-MHC binding, purified MHC/direct/fluorescence; filed as Kd, often an IC50 or EC50 that approximates it; ≥ and ≤ were set here for values at or beyond the usual limits of such assays; settings: source organism: Camelpox virus M-96
HLA-B*07:02 = experiment: as above
HLA-B*40:01 = experiment: as above
HLA-A*69:01 = experiment: as above
HLA-B*46:01 = experiment: as above
HLA-A*11:01 = experiment: as above; settings: source organism: Camelpox virus M-96
HLA-B*08:02 = experiment: as above
HLA-A*03:01 = experiment: as above
HLA-A*68:02 = experiment: as above; settings: source organism: Camelpox virus M-96
HLA-A*31:01 = experiment: as above; settings: source organism: Camelpox virus M-96
HLA-B*15:17 = experiment: as above; settings: source organism: Camelpox virus M-96
HLA-B*58:01 = experiment: as above
HLA-A*80:01 = experiment: as above
HLA-A*02:01 [10] = experiment: IEDB peptide-MHC binding, cellular MHC/competitive/fluorescence; ≥ and ≤ were set here for values at or beyond the usual limits of such assays; settings: source organism: Homo sapiens
HLA-A*01:01 [11] = experiment: IEDB peptide-MHC binding, purified MHC/direct/fluorescence; filed as Kd, often an IC50 or EC50 that approximates it; ≥ and ≤ were set here for values at or beyond the usual limits of such assays
HLA-A*30:01 [12] = experiment: as above; settings: source organism: Bacillus cereus NVH0597-99
HLA-A*24:02 = experiment: as above; settings: source organism: Influenza A virus (A/turkey/Minnesota/1200/1980(H7N3))
HLA-A*02:06 [13] = experiment: as above; settings: source organism: Influenza A virus H3N2
HLA-B*08:01 = experiment: as above; settings: source organism: Influenza A virus (A/turkey/Minnesota/1200/1980(H7N3))
HLA-B*15:01 [14] = experiment: as above; settings: source organism: Influenza A virus (A/turkey/Minnesota/1200/1980(H7N3))
HLA-B*44:02 = experiment: as above; settings: source organism: Influenza A virus (A/turkey/Minnesota/1200/1980(H7N3))
HLA-B*27:05 [15] = experiment: as above; settings: source organism: Influenza A virus (A/turkey/Minnesota/1200/1980(H7N3))
HLA-A*02:01 [16] = experiment: as above; settings: source organism: Influenza A virus (A/Puerto Rico/8/34/Mount Sinai(H1N1))
HLA-A*02:03 [17] = experiment: as above; settings: source organism: Influenza A virus H3N2
HLA-A*02:19 = experiment: as above; settings: source organism: Influenza A virus H3N2
HLA-A*02:12 = experiment: as above; settings: source organism: Influenza A virus H3N2
HLA-A*02:11 = experiment: as above; settings: source organism: Influenza A virus H3N2
[18] = source organism: Human immunodeficiency virus 1
[19] = source organism: Vaccinia virus WR
[20] = source organism: Camelpox virus M-96
[21] = source organism: Bacillus anthracis
[22] = source organism: Influenza A virus (A/turkey/Minnesota/1200/1980(H7N3))

FSSCPVAY
IC50 (HLA-A*01:01 [1]): 1940 nM | IC50 (HLA-A*25:01): ≥ 20000 nM

KLKSLYNTV
Kd (HLA-A*02:06 [2]; [18]): 17.4 nM | Kd (HLA-B*15:01 [3]; [18]): ≥ 20000 nM | Kd (HLA-B*39:01): ≥ 20000 nM | Kd (HLA-A*02:01 [4]; [18]): 26.1 nM | Kd (HLA-A*02:03 [5]; [18]): 13.1 nM | Kd (HLA-A*26:01; [18]): ≥ 20000 nM | Kd (HLA-A*26:03; [18]): ≥ 20000 nM | Kd (HLA-A*30:01 [6]): 1.3 nM

KVFDKSLLY
Kd (HLA-A*30:01 [7]): 71 nM | Kd (HLA-A*02:06 [2]; [19]): 3100 nM | Kd (HLA-A*01:01 [8]): 2480 nM | Kd (HLA-B*15:01 [3]; [19]): 374 nM | Kd (HLA-B*27:05 [9]): ≥ 20000 nM | Kd (HLA-A*26:02): 1990 nM | Kd (HLA-B*57:01): 424 nM | Kd (HLA-A*02:01 [4]; [19]): ≥ 20000 nM | Kd (HLA-A*02:03 [5]; [19]): ≥ 20000 nM | Kd (HLA-A*26:01; [19]): 1750 nM | Kd (HLA-A*26:03; [19]): ≥ 20000 nM | Kd (HLA-B*35:01): 8.2 nM | Kd (HLA-B*48:01): ≥ 20000 nM | Kd (HLA-B*07:02; [20]): ≥ 20000 nM | Kd (HLA-B*40:01; [20]): ≥ 20000 nM | Kd (HLA-A*69:01; [20]): ≥ 20000 nM | Kd (HLA-B*46:01; [20]): ≥ 20000 nM | Kd (HLA-A*11:01): 4 nM | Kd (HLA-B*08:02; source organism: Variola virus): ≥ 20000 nM | Kd (HLA-A*03:01; [20]): 35 nM | Kd (HLA-A*68:02): ≥ 20000 nM | Kd (HLA-A*31:01): 2760 nM | Kd (HLA-B*15:17): 2.3 nM | Kd (HLA-B*58:01; source organism: Variola virus): 5 nM

RVERIKSEY
Kd (HLA-A*80:01; source organism: Yellow fever virus): 33.8 nM

SPSVDKARAEL
IC50 (HLA-A*02:01 [10]): ≥ 200000 nM

TTLRYPIGK
Kd (HLA-A*01:01 [11]; [21]): ≥ 20000 nM | Kd (HLA-A*30:01 [12]): 81 nM | Kd (HLA-A*80:01; [21]): ≥ 20000 nM

VTTEVAFGL
Kd (HLA-A*24:02): ≥ 20000 nM | Kd (HLA-A*02:06 [13]): ≤ 1 nM | Kd (HLA-A*01:01 [11]; [22]): ≥ 20000 nM | Kd (HLA-B*08:01): ≥ 20000 nM | Kd (HLA-B*15:01 [14]): ≥ 20000 nM | Kd (HLA-B*07:02; [22]): ≥ 20000 nM | Kd (HLA-B*40:01; source organism: Influenza A virus (A/Puerto Rico/8/34/Mount Sinai(H1N1))): 15000 nM | Kd (HLA-A*69:01; [22]): ≥ 20000 nM | Kd (HLA-B*44:02): ≥ 20000 nM | Kd (HLA-B*27:05 [15]): ≥ 20000 nM | Kd (HLA-B*46:01; [22]): ≥ 20000 nM | Kd (HLA-B*08:02; source organism: Influenza A virus H3N2): ≥ 20000 nM | Kd (HLA-A*02:01 [16]): 69 nM | Kd (HLA-A*02:03 [17]): 517 nM | Kd (HLA-A*03:01; [22]): ≥ 20000 nM | Kd (HLA-A*02:19): 656 nM | Kd (HLA-A*02:12): 186 nM | Kd (HLA-A*02:11): ≤ 1 nM | Kd (HLA-B*58:01; [22]): 494 nM
